# Experimental data published in paper PMC7826279 (Nucleic Acids Research, 2021).
# T1: Sty1-His (S. pombe, UniProt Q09892 1-349)
# T1 sequence (looked up): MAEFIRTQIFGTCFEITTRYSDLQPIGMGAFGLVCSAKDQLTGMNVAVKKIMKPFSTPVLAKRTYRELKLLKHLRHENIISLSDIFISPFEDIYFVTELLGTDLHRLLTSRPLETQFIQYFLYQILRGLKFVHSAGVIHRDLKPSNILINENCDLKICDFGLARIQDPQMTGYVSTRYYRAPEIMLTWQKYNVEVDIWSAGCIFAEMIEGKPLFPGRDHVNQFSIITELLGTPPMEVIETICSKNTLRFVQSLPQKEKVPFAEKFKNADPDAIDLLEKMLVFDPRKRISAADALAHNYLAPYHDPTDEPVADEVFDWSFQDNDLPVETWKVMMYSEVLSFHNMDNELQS
# T2: Sty1 (K49R)-His (S. pombe, UniProt Q09892 1-349, K49R)
# T2 sequence (looked up): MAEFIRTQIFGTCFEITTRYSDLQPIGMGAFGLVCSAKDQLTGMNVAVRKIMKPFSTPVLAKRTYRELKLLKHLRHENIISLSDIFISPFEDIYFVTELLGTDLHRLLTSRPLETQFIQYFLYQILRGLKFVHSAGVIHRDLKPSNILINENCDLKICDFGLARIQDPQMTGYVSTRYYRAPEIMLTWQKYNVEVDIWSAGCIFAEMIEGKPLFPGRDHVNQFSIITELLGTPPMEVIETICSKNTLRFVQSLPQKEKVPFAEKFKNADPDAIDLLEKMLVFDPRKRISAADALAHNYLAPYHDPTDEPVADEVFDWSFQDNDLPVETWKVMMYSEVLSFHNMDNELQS
# T3: Ssu72-His (S. pombe, UniProt O42868 1-197)
# T3 sequence (looked up): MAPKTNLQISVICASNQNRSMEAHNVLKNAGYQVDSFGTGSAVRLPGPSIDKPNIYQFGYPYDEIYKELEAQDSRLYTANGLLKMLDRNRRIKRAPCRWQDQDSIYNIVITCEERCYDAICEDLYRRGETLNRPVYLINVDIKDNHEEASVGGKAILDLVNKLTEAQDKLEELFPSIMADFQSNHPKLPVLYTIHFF
# How the values were obtained:
# Assay in all cases: pull-down
# Sty1-His = target: T1, Sty1-His
# Sty1 (K49R)-His = target: T2, Sty1 (K49R)-His
# phosphorylated CTD-GFP = phosphorylated CTD-GFP (S. pombe, UniProt P36594 1549-1751, phosphorylated (sites not told for this preparation))
# Sequence of phosphorylated CTD-GFP (P36594 1549-1751): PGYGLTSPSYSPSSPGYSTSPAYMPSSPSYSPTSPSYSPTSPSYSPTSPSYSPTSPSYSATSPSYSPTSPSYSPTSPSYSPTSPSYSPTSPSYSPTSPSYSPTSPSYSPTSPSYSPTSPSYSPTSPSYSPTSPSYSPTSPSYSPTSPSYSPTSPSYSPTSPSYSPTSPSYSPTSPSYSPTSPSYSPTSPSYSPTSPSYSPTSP
# Ssu72-His = target: T3, Ssu72-His
binder,measurement,setting,value
GST-Rpb1-CTD (domain or fragment) not shown,binding result,Sty1-His,binds
same,binding result,Sty1 (K49R)-His,binds
"Pin1-GST (natural protein, S. pombe, UniProt O74448 1-175, looked up) MSNTGLPKPWIVKISRSRNRPYFFNTETHESLWEPPAATDMAALKKFIANELQESVTPTEASNSPKIRASHLLVKHRESRRPSSWKEEHITRSKEEARKLAEHYEQLLKSGSVSMHDLAMKESDCSSARRGGELGEFGRDEMQKPFEDAAFALKPGEISGVVETSSGFHIIQRHA",binding result,phosphorylated CTD-GFP,binds
same,binding result,Ssu72-His,binds
"Pin1 (S79E)-GST (natural protein, S. pombe, UniProt O74448 1-175, looked up) MSNTGLPKPWIVKISRSRNRPYFFNTETHESLWEPPAATDMAALKKFIANELQESVTPTEASNSPKIRASHLLVKHREERRPSSWKEEHITRSKEEARKLAEHYEQLLKSGSVSMHDLAMKESDCSSARRGGELGEFGRDEMQKPFEDAAFALKPGEISGVVETSSGFHIIQRHA",binding result,phosphorylated CTD-GFP,binds
